These results are taken from patent US20090305962A1 (Amgen, published 2009).

This test addresses T1, human IL-6 (human, UniProt P05231 30-212).
T1 construct: the protein used was bought recombinant human IL-6 (R&D Systems), in part biotinylated; also called rhIL-6; hIL-6
The test is described as follows: panning and screening on IL-6.

B1: SEQ ID NO 720 (designed binder)
chain: CLASQFRCGNGSCLSQTLLCDGVNDCADNSDEVSCPPPTCLPSQFQCGSGYCISQRWVCDGENDCEDSSDEANCAGSVPT
In the case of B1, the binding result is on record as “binds”.

B2: SEQ ID NO 745 (designed binder)
chain: CPPGEFKCNSGNCVSPTWGCDGVDDCGDDSDEASAICEAPEHTCLPSQFQCGSGYCISQRWVCDGENDCEDSSDEANCAGSVPT
B2: the binding result is on record as “binds”.

B3: SEQ ID NO 671 (designed binder)
chain: CQSSEFTCSSGRCLSAGWLCDGVNDCRDDSDEESCTAPVPTCVPSQFQCGSGYCISQRWVCDGENDCEDSSDEANCAGSVPT
Regarding B3, the binding result is reported as “binds”.

B4: SEQ ID NO 689 (designed binder)
chain: CRASQFQCGSGYCIPRPWLCDGVNDCEDSSDEANCAGSVPTCQPSQFRCRSGHCISGALGCDGEPDCGDGSDETGCRASAHT
With B4, the binding result is reported as “binds”.

B5: SEQ ID NO 677 (designed binder)
chain: CRADQCQCNSGHCLSRNLRCDGEDDCADNSDEKSCSQDPEFHKVCLPDQFQCGSGYCLPQRWVCDGVDDCEDSSDEKGCTPHT
Consider B5, for which the binding result was “binds”. Regarding CPSDEFTCDSGRCVSLNWLCDGVNDCGDNSDEAGCPTRT (designed binder) [SEQ ID NO 603], the binding result was “binds”.

B6: SEQ ID NO 743 (designed binder)
chain: CVPSQFQCRNNGICIPQNWHCDGVPDCEDSSDEESCGTTVHTCLPSQFQCGSGYCISQRWVCDGENDCEDSSDEANCAGSVPT
Turning to B6, the binding result was “binds”.

B7: SEQ ID NO 715 (designed binder)
chain: CLADQFKCHNTNICIPGRLGCDGDPDCEDDSDEKGCPPHTCLPSQFQCGSGYCISQRWVCDGENDCEDSSDEANCAGSVPT
With B7, the binding result was “binds”.

B8: SEQ ID NO 784 (designed binder)
chain: CLSSQFQCDNGNCVPQQWVCDGDNDCLDDSDETSCSAPASEPPGSLCPASQFPCSSGHCVPLNWVCDGVNDCVDGSDEAGCPPRTCLPDQFQCGSGYCISQRWVCDGENDCEDSSDEANCAGSVPT
For the molecule B8, the binding result was “binds”.

B9: SEQ ID NO 754 (designed binder)
chain: CPPSQFPCNSGNCVSAAWVCDGVDDCGDDSDESLAICPTSTCLPDQFQCGSGYCLPQRWVCDGVDDCEDSSDEKGCTPHT
On to B9, for which the binding result is “binds”.

B10: SEQ ID NO 669 (designed binder)
chain: CEASQFPCRNSERCVPPHLLCDGVNDCADGSDEIGCPPHTCVPSQFQCGSGYCISQRWVCDGENDCEDSSDEANCAGSVPT
As to B10, the binding result is “binds”.

B11: SEQ ID NO 672 (designed binder)
chain: CQPGQFQCHDYGRCVSQNWLCDGDPDCLDSSDEANCQPPTCVPSQFQCGSGYCISQRWVCDGENDCEDSSDEANCAGSVPT
As to B11, the binding result was “binds”.

B12: SEQ ID NO 681 (designed binder)
chain: CGSDEFLCNNGKCIPPTWGCDGVNDCQDNSDEAPALCPPPTCRSNQFQCGSGYCIPQRWVCDGVDDCEDSSDEKGCTPHT
On to B12, for which the binding result is “binds”.

B13: SEQ ID NO 712 (designed binder)
chain: CRSSQFRCSSGQCVSLGWVCDGVNDCPDSSDETGCPKRTCLPSQFQCGSGYCISQRWVCDGENDCEDSSDEANCAGSVPT
As for B13, the binding result is given as “binds”.

B14: SEQ ID NO 714 (designed binder)
chain: CPPSQFTCSNGNCLSPTLLCDGVNDCVDDSDETSCAASVHTCLPSQFQCGSGYCISQRWVCDGENDCEDSSDEANCAGSVPT
As to B14, the binding result is “binds”.

B15: SEQ ID NO 749 (designed binder)
chain: CGASEFRCDSGHCISPDWRCDGDNDCVDGSDEKSCEQRTCLPSQFQCGSGYCFSQRWVCDGENDCEDGSDEANCAGSVPT
B15: the binding result was “binds”. For the molecule CLPSEFQCRDSKICLSADWLCDGVNDCVDGSDEAGCPPRT (designed binder) [SEQ ID NO 599], the binding result was “binds”.

B16: SEQ ID NO 700 (designed binder)
chain: CRSNQFQCGSGYCIPVKWLCDGENDCEDSSDEESCPARTCPPSEFRCKGSGKCVPQHWLCDGVNDCEDDSDEKSCPPPT
On to B16, for which the binding result was “binds”. The entry for CPPDEFQCNSGSCLSQPLLCDGEDDCGDGSDEESCIAAEHT (designed binder) [SEQ ID NO 575] is “binds”. The entry for CQANEFTCSSGNCLSPALLCDGVDDCGDNSDETNCASPAPT (designed binder) [SEQ ID NO 511] is “binds”.

B17: SEQ ID NO 758 (designed binder)
chain: CRPSQFQCQNSSRCIPLGWRCDGDNDCEDGSDEKDCTATARTCLPDQFQCGSGYCLPQAWVCDGENDCEDGSDETNCPART
In the case of B17, the binding result is reported as “binds”.

B18: SEQ ID NO 670 (designed binder)
chain: CPSNQFQCRNNGTCIPLPWLCDGVDDCGDDSDETSCTEPTCVPSQFQCGSGYCISQRWVCDGENDCEDSSDEANCAGSVPT
B18: the binding result is “binds”.

B19: SEQ ID NO 726 (designed binder)
chain: CLPGQFRCHSTDTCLPESWVCDGVNDCADDSDEASCPPHTCLPSQFQCGSGYCISQRWVCDGENDCEDSSDEANCAGSVPT
On to B19, for which the binding result was “binds”.

B20: SEQ ID NO 735 (designed binder)
chain: CAANEFRCRSTNTCIPQQWLCDGVNDCQDDSDEKSCRTPAPTCLPSQFQCGSGYCISQRWVCDGENDCEDSSDEANCAGSVPT
Take B20: the binding result was “binds”.

B21: SEQ ID NO 725 (designed binder)
chain: CLANEFRCSSGQCIPARWLCDGVNDCVDDSDEKDCPARTCLPSQFQCGSGYCISQRWVCDGENDCEDSSDEANCAGSVPT
On to B21, for which the binding result is reported as “binds”.

B22: SEQ ID NO 716 (designed binder)
chain: CPPGEFPCSSGHCLSQALRCDGVPDCEDDSDETGCPPPTCLPSQFQCGSGYCISQRWVCDGENDCEDSSDEANCAGSVPT
With B22, the binding result is recorded as “binds”.

B23: SEQ ID NO 751 (designed binder)
chain: CLPSQFQCGSGYCISQRWVCDGENDCEDSSDEANCAGSVPTCLPSEFQCGNGRCLPLRLLCDGDDDCGDNSDEPLATCETSAPT
On to B23, for which the binding result is listed as “binds”.

B24: SEQ ID NO 764 (designed binder)
chain: CEAGEFRCRNGSCIPEAWGCDGVNDYLDNSDETNCPAHTCLSSEFQCGSGYCISQRWVCDGENDCEDSSDEANCAGSVPT
B24: the binding result is reported as “binds”.

B25: SEQ ID NO 787 (designed binder)
chain: CLPNEFTCDSGNCVPQALGCDGDNDCEDNSDESPALCAAPAHTCQANEFTCSSGNCLSPALLCDGVDDCGDNSDETYCASPAPTCLPSQFQCGSGYCISQRWVCDGENDCEDSSDEANCAGSVPT
With B25, the binding result is reported as “binds”.

B26: SEQ ID NO 645 (designed binder)
chain: CGANEFQCGSGYCLPVGWVCDGENDCEDNSDEKGCPPHTCLPNQFQCRNGRCIPLPWLCDGDNDCEDDSDATNCTPRT
Consider B26, for which the binding result is “binds”.

B27: SEQ ID NO 785 (designed binder)
chain: CQASEFPCDSGQCIPQPLGCDGDNDCADNSDEESCQPRTCPASQFPCSSGHCVPLNWVCDGVNDCVDGSDEAGCPPRTCLPDQFQCGSGYCISQRWVCDGENDCEDSSDEANCAGSVPT
For B27, the binding result is recorded as “binds”.

B28: SEQ ID NO 680 (designed binder)
chain: CPADEFPCKNGKCLPLPWVCDGDNDCADNSDETDCTATAPTCRSNQFQCGSGYCISQRWVCDGENDCEDSSDEANCAGSVPT
On to B28, for which the binding result is listed as “binds”.

B29: SEQ ID NO 665 (designed binder)
chain: CRASQFQCGSGYCIPRPWLCDGVNDCEDGSDEADCQTRTCVPSQFQCGSGYCISQRWVCDGENDCEDSSDEANCAGSVPT
Consider B29, for which the binding result is on record as “binds”.

B30: SEQ ID NO 635 (designed binder)
chain: CAPSQFTCGNGNCVPRPWLCDGDNDCEDDSDETSCPPHTCLPDQFQCGSGYCLPQAWVCDGENDCEDGSDETNCPART
With B30, the binding result was “binds”. In the case of CLPSQFQCGSGYCISQRWVCDGEHDCEDSSDEANCAGSVPT (designed binder) [SEQ ID NO 538], the binding result was “binds”. On to CLPSQFQCGSGWCISQRWVCDGENDCEDSSDEANCAGSVPT (designed binder) [SEQ ID NO 544], for which the binding result is “binds”.

B31: SEQ ID NO 768 (designed binder)
chain: CASNEFPCSNGNCIPGPLRCDGVNDCEDNSDESPLWPLHTCLPSQFQCGSGYCISQRWVCDGENDCEDSSDEANCAGSVPT
In the case of B31, the binding result is on record as “binds”. Regarding CEANELRCSSGRCLSVHWLCDGVDDCEDSSDEAGCPPRT (designed binder) [SEQ ID NO 600], the binding result was “binds”.

B32: SEQ ID NO 730 (designed binder)
chain: CAPSQFRCESGQCLPANWRCDGENDCQDGSDESPAICEGTAPTCLPSQFQCGSGYCISQRWVCDGENDCEDSSDEANCAGSVPT
Consider B32, for which the binding result is listed as “binds”.

B33: SEQ ID NO 675 (designed binder)
chain: CRSSEFRCDSGHCLPLPWVCDGDDDCEDGSDEAQDCEPRTCVPSQFQCGSGYCISQRWVCDGENDCEDSSDEANCAGSVPT
For the molecule B33, the binding result is recorded as “binds”.
